The values that follow come from publication PMC5820281.

The target in assay [1] is Renilla luciferase-IgG1 Fc fusion protein (Fc region of IgG1, amino acids 233–449). In words: luciferase pull-down (bead-immobilized GST fusion protein, luciferase-tagged Fc-IgG). As to conditions: parent: est. 240000; read off a plot.
Assay [2] concerns the target GST-Ro52-Δ2 (C-terminal fragment of Ro52/TRIM21 fused to glutathione S-transferase) (UniProt P19474). The assay is described as above. The conditions noted are these: read off a plot.
Chain of UniProt P19474 (P19474 277-475, stated change not applied): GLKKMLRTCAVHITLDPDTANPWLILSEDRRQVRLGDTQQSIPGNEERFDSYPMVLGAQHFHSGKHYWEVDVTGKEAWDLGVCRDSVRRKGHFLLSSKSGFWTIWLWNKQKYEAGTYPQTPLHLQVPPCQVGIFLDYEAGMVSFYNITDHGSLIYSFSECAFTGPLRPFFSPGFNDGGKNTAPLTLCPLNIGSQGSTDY
For assay [3], the target named is protein A/G (Ultralink protein A/G beads). Put plainly: luciferase pull-down (protein A/G beads, luciferase-tagged Fc-IgG). As to conditions: read off a plot.

“GST-Ro52-Δ2 (C-terminal fragment of Ro52/TRIM21 fused to glutathione S-transferase) (from UniProt P19474) D355A”: the response in assay [1] came out at 3900 LU. For “Renilla luciferase-IgG1 Fc fusion protein (Fc region of IgG1, amino acids 233–449) H435del; N436del; H437del”, the response is 4200 LU in assay [2] and 3600 LU in assay [3].
